According to the supplement of paper PMC9112550, “Optimization of the antimicrobial peptide Bac7 by deep mutational scanning” (BMC Biology, 2022):

System: Escherichia coli TOP10
Assay: shrunken log2 fold change of peptide-encoding DNA abundance (4.5 h post-induction vs induction); higher = less antimicrobial activity (less host growth inhibition)
Details: time post-induction: 4.5 h; library: site-saturation at positions 5, 18, 19, 20
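Note: peptides expressed intracellularly from a pBAD plasmid library in pooled LB shake-flask culture, induced with 0.3% L-arabinose, DNA abundance read by NGS, three biological replicates, DESeq2 with apeglm shrinkage.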

| Sequence | shrunken log2 fold change |
| --- | --- |
| RRIRIRPPRLPRPRPRPELEPRP | 0.0281 |
| RRIRIRPPRLPRPRPRPENEPRP | -0.428 |
| RRIRIRPPRLPRPRPRPEPMPRP | 0.132 |
| RRIRIRPPRLPRPRPRPEPTPRP | 0.659 |
| RRIRIRPPRLPRPRPRPEQRPRP | -0.0838 |
| RRIRIRPPRLPRPRPRPERTPRP | 0.0643 |
| RRIRIRPPRLPRPRPRPETGPRP | -0.322 |
| RRIRIRPPRLPRPRPRPETKPRP | 0.0233 |
| RRIRIRPPRLPRPRPRPETVPRP | -0.344 |
| RRIRIRPPRLPRPRPRPEVDPRP | -0.0435 |
| RRIRIRPPRLPRPRPRPEWCPRP | 0.0249 |
| RRIRIRPPRLPRPRPRPEWVPRP | 0.00655 |
| RRIRIRPPRLPRPRPRPEYEPRP | -0.0111 |
| RRIRIRPPRLPRPRPRPEYLPRP | 0.0178 |
| RRIRIRPPRLPRPRPRPEYVPRP | -0.196 |
| RRIRIRPPRLPRPRPRPFAEPRP | -0.221 |
| RRIRIRPPRLPRPRPRPFCCPRP | -0.205 |
| RRIRIRPPRLPRPRPRPFCKPRP | -0.893 |
| RRIRIRPPRLPRPRPRPFEIPRP | -0.0373 |
| RRIRIRPPRLPRPRPRPFFFPRP | -0.0692 |
| RRIRIRPPRLPRPRPRPFFTPRP | -0.312 |
| RRIRIRPPRLPRPRPRPFIEPRP | -0.848 |
| RRIRIRPPRLPRPRPRPFILPRP | -0.275 |
| RRIRIRPPRLPRPRPRPFKDPRP | -0.0121 |
| RRIRIRPPRLPRPRPRPFLDPRP | -0.888 |

| Sequence | shrunken log2 fold change |
| --- | --- |
| RRIRIRPPRLPRPRPRPFLKPRP | -0.341 |
| RRIRIRPPRLPRPRPRPFLLPRP | -0.563 |
| RRIRIRPPRLPRPRPRPFMCPRP | -0.103 |
| RRIRIRPPRLPRPRPRPFMEPRP | -0.354 |
| RRIRIRPPRLPRPRPRPFNHPRP | -0.0691 |
| RRIRIRPPRLPRPRPRPFPGPRP | -0.155 |
| RRIRIRPPRLPRPRPRPFPIPRP | 0.0234 |
| RRIRIRPPRLPRPRPRPFQNPRP | -0.296 |
| RRIRIRPPRLPRPRPRPFRDPRP | -0.111 |
| RRIRIRPPRLPRPRPRPFWHPRP | -0.275 |
| RRIRIRPPRLPRPRPRPGCWPRP | 0.312 |
| RRIRIRPPRLPRPRPRPGDGPRP | 0.281 |
| RRIRIRPPRLPRPRPRPGEEPRP | -0.0165 |
| RRIRIRPPRLPRPRPRPGHAPRP | -0.0343 |
| RRIRIRPPRLPRPRPRPGIFPRP | -0.5 |
| RRIRIRPPRLPRPRPRPGIWPRP | -0.015 |
| RRIRIRPPRLPRPRPRPGKFPRP | -0.0679 |
| RRIRIRPPRLPRPRPRPGLHPRP | -0.000332 |
| RRIRIRPPRLPRPRPRPGMIPRP | -0.309 |
| RRIRIRPPRLPRPRPRPGNCPRP | -0.549 |
| RRIRIRPPRLPRPRPRPGNWPRP | -0.35 |
| RRIRIRPPRLPRPRPRPGPEPRP | 0.342 |
| RRIRIRPPRLPRPRPRPGQDPRP | -0.165 |
| RRIRIRPPRLPRPRPRPGQEPRP | -0.00674 |
| RRIRIRPPRLPRPRPRPGQSPRP | 0.0669 |

| Sequence | shrunken log2 fold change |
| --- | --- |
| RRIRIRPPRLPRPRPRPGSFPRP | -0.0206 |
| RRIRIRPPRLPRPRPRPGYLPRP | 2.69 |
| RRIRIRPPRLPRPRPRPGYSPRP | -0.525 |
| RRIRIRPPRLPRPRPRPHAAPRP | -0.298 |
| RRIRIRPPRLPRPRPRPHAGPRP | -0.242 |
| RRIRIRPPRLPRPRPRPHAIPRP | -0.21 |
| RRIRIRPPRLPRPRPRPHAVPRP | -0.12 |
| RRIRIRPPRLPRPRPRPHCLPRP | -0.104 |
| RRIRIRPPRLPRPRPRPHDKPRP | -0.74 |
| RRIRIRPPRLPRPRPRPHEDPRP | -0.182 |
| RRIRIRPPRLPRPRPRPHGMPRP | 0.0429 |
| RRIRIRPPRLPRPRPRPHGSPRP | -0.261 |
| RRIRIRPPRLPRPRPRPHGTPRP | -0.236 |
| RRIRIRPPRLPRPRPRPHIEPRP | -0.0878 |
| RRIRIRPPRLPRPRPRPHIQPRP | -0.791 |
| RRIRIRPPRLPRPRPRPHKGPRP | -0.145 |
| RRIRIRPPRLPRPRPRPHLQPRP | -0.343 |
| RRIRIRPPRLPRPRPRPHLTPRP | -0.379 |
| RRIRIRPPRLPRPRPRPHMDPRP | -0.103 |
| RRIRIRPPRLPRPRPRPHNRPRP | -0.573 |
| RRIRIRPPRLPRPRPRPHPCPRP | -0.736 |
| RRIRIRPPRLPRPRPRPHPPPRP | -0.0108 |
| RRIRIRPPRLPRPRPRPHQYPRP | -1.31 |
| RRIRIRPPRLPRPRPRPHSMPRP | -0.382 |
| RRIRIRPPRLPRPRPRPHTEPRP | 0.0578 |
